This is an account of results in US20190367612A1 (Daiichi Sankyo, published 2019).

In assay [1] the target is T1, human GPRC5D amino-terminal peptide MYKDCIESTGDYFLLCDAEGPWGIILE-K(Biotin)-NH2, having an intramolecular … (human, C-terminal lysine carrying biotin, C-terminal amide; intramolecularly formed disulfide bond).
T1 construct: Peptide Institute synthetic peptide; also called amino-terminal peptide of biotinylated human GPRC5D (disulfide bond present)
T1 peptide: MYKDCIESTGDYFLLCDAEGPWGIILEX
The experiment in a line: SPR (Biacore T200), kinetic analysis: biotinylated amino-terminal peptide of human GPRC5D on Sensor Chip CAP, scFv as analyte. As to the method: The binding activity of the anti-GPRC5D antibodies against the amino-terminal peptide of human GPRC5D was tested by SPR using Biacore T200. The amino-terminal peptide of biotinylated human GPRC5D diluted to 2 nM with HBS-EP+ (manufactured by GE Healthcare Bio-Sciences Corp.) was immobilized on Sensor Chip CAP (manufactured by GE Healthcare Bio-Sciences Corp.) by contact at a rate of 10 μL/min for 180 seconds. Then, Kd was calculated by kinetic analysis using a plurality of concentrations of each scFv diluted with HBS-EP+ as analytes.
For orientation: In SPR one partner is held on a chip, and binding of the other changes the refractive index at the surface.

Assay [2] concerns the target T2, amino-terminal peptide of cynomolgus monkey GPRC5D …(Biotin)-NH2 (cynomolgus monkey, C-terminal lysine carrying biotin, C-terminal amide).
T2 construct: also called amino-terminal peptide of biotinylated cynomolgus monkey GPRC5D
T2 peptide: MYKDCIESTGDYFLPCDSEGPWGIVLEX
The experiment in a line: ELISA, chemiluminescence: biotinylated amino-terminal peptide of cynomolgus monkey GPRC5D on NeutrAvidin, culture supernatant of IgG-expressing cells (one concentration, not given), HRP anti-human Fab detection. As to the method: (§1) NeutrAvidin diluted to 1 μg/mL with PBS was added in an amount of 50 μL/well to 96-well Maxi-sorp plate, and the plate was left standing overnight at 4° C. for immobilization. After washing three times with an ELISA buffer, the amino-terminal peptide of the biotinylated human or cynomolgus monkey GPRC5D (used in Example 10)-1) diluted to 1 μg/mL with PBS was added thereto, and the plate was shaken at room temperature for 1 hour. After washing three times with an ELISA buffer, the plate was blocked with Blocker Casein and washed three times with an ELISA buffer. Then, the culture solution of the IgG-expressing FreeStyle 293F cells was added to the plate and reacted at room temperature for 2 hours. After washing three times with an ELISA buffer, a horseradish peroxidase (HRP)-labeled anti-human Fab antibody (Jackson ImmunoResearch Laboratories, Inc.) diluted 2500-fold with ELISA buffer was added thereto in an amount of 50 μL/well and reacted at room temperature for 1 hour. After washing five times with an ELISA buffer, SuperSignal Pico ELISA Chemiluminescent substrate was added. After 10 minutes, the chemiluminescence was measured using a plate reader.
Background: An ELISA detects its analyte on a solid surface through an enzyme-linked reagent.

The target of assay [3] is T3, human GPRC5D (human, UniProt Q9NZD1 1-345).
T3 construct: whole, on cells; also called hGPRC5D; G-protein coupled receptor family C group 5 member D
As to the kind of experiment: flow cytometry on KHM-1B cells (human GPRC5D), PE anti-human IgG Fc detection, rMFI = MFI minus isotype control. As to the method: (§2) Human multiple myeloma cell line KHM-1B cells expressing GPRC5D were adjusted to a concentration of 2×10⁶ cells/mL with PBS containing 5% FBS, inoculated in an amount of 100 μL/well to a 96-well U-bottomed microplate, and centrifuged to remove the supernatant. The culture supernatant of each human anti-GPRC5D antibody (full-length IgG form containing C2037, C3048, C3015, or C3022) obtained in Example 10)-5 or Human IgG isotype control antibody (Calbiochem/Merck Millipore Corp.) adjusted to 14 ng/mL to 30 μg/mL was added thereto in an amount of 100 μL/well, and the plate was left standing at 4° C. for 1 hour. The cells were washed twice with PBS containing 5% FBS. Then, R-Phycoerythrin AffiniPure F(ab′)2 Fragment Goat Anti-Human IgG, Fcγ Fragment Specific (Jackson ImmunoResearch Laboratories, Inc.) diluted 100-fold with PBS containing 5% FBS was added thereto in an amount of 100 μL/well, and the plate was left standing at 4° C. for 1 hour. The cells were washed twice with PBS containing 5% FBS and then resuspended in PBS containing 5% FBS, followed by detection using a flow cytometer (FACSCanto™ II; Becton, Dickinson and Company). The data was analyzed using Flowjo (Tree Star, Inc.). The PE fluorescence intensity of the cell fraction was plotted to a histogram, and the mean fluorescence intensity (MFI) was calculated. The MFI value of the control antibody was subtracted from the MFI value of the GPRC5D antibody to calculate a relative value of MFI (rMFI).
Background: Flow cytometry measures light scatter and fluorescence of single cells or particles in a stream.

The target in assay [4] is T1, human GPRC5D amino-terminal peptide …. As to the kind of experiment: ELISA, chemiluminescence: biotinylated amino-terminal peptide of human GPRC5D on NeutrAvidin, culture supernatant of IgG-expressing cells (one concentration, not given), HRP anti-human Fab detection. As to the method: as §1
The target in assay [5] is T3, human GPRC5D. The experiment in a line: flow cytometry on KHM-1B cells (human GPRC5D), culture supernatant, PE anti-human IgG Fc, rMFI over human IgG isotype control. As to the method: as §2, with “remove a” for “remove the”, “each humanized” for “each human”, “antibody” for “antibody (full-length IgG form containing C2037, C3048, C3015, or C3022)”, “Example 8)-3-1” for “Example 10)-5”

Another assay deals with T4, cynomolgus monkey GPRC5D (cynomolgus monkey).
T4 construct: whole, on cells; Stably expressed on KMS-11 cells (KMS-11_cGPRC5D); also called cGPRC5D
The experiment in a line: flow cytometry on KMS-11_cGPRC5D cells (cynomolgus monkey GPRC5D), PE anti-human IgG Fc detection, rMFI = MFI minus isotype control.

The next assay has as its target T5, mouse GPRC5D (mouse, UniProt Q9JIL6 1-344).
T5 construct: whole, on cells
T5 sequence (looked up): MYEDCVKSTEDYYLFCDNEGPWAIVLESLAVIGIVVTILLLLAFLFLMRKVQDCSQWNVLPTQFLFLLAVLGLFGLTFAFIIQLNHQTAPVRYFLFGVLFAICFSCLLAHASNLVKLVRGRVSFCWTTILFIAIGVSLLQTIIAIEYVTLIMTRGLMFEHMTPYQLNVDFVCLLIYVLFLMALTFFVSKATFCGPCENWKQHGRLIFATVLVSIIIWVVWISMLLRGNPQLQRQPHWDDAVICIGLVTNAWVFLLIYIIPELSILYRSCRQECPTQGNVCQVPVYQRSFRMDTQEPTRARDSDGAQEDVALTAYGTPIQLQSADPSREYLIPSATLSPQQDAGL
The experiment in a line: flow cytometry, in the same way as in Example 5)-2.

T3 sequence (Q9NZD1 whole entry): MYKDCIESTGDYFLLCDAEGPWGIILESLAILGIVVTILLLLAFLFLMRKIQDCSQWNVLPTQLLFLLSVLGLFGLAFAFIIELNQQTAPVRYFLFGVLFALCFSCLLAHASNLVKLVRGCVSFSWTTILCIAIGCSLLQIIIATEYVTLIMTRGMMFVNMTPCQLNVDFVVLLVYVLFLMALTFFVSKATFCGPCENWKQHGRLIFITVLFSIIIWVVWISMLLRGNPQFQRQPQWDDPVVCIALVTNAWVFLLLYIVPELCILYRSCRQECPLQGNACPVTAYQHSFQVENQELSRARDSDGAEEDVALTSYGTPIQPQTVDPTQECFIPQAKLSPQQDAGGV

B1: E1018 scFv (high binding mutant of C3022) (scFv)
chain: QVQLVQSGAEVKKPGASVKVSCKASGYTFTGYYMHWVRQAPGQGLEWMGRINPNSGGTNYAQKFQGRVTMTRDTSISTAYMELSGLRSDDTAVYYCKSGSVRPPWGQGTLVTVSSGGGGSGGGGSGGGGSQPVLTQPPSASGTPGQRVTISCSGSRSNIGGNIVSWYQQFPGTAPRLLTYRNTRRPSGVPDRFSGSKSGTSASLAISGLQSEDEADYYCAAWDDSLGGVVFGGGTKLTVL
Usually Kd stands for the equilibrium constant for the complex coming apart. With B1, in assay [1], the Kd worked out at 0.0032 nM.

B2: IgG form of the human antibody C3022 (antibody, V domains shown)
VH: QVQLVQSGAEVKKPGASVKVSCKASGYTFTGYYMHWVRQAPGQGLEWMGRINPNSGGTNYAQKFQGRVTMTRDTSISTAYMELSGLRSDDTAVYYCASGSVRHPWGQGTLVTVSS
VL: QPVLTQPPSASGTPGQRVTISCSGSRSNIGGNIVSWYQQFPGTAPRLLTYADNQRPSGVPDRFSGSKSGTSASLAISGLQSEDEADYYCAAWDDSLNGVVFGGGTKLTVLG
notes: Human IgG1; also called C3022 IgG form; full-length IgG form containing C3022
For the molecule B2, the binding result (in assay [2]; in the assay with human GPRC5D [3]; in assay [4]) was “binds” each time.

B3: IgG form of the human antibody C2037 (antibody, V domains shown)
VH: not shown
VL: QPVLTQPPSASGTPGQRVTISCSGSNSNIGSRTVNWYQHLPGTAPRLLIYGNNQWPSGVPDRFSGSKSGSSASLAISGLRSEDEADYYCAAWDDSLSGVVFGGGTKLTVLG
notes: Human IgG1; also called C2037 IgG form; full-length IgG form containing C2037
One may read the EC50 (read off the curve) as the midpoint of the concentration-response curve. As for B3, the binding result in assay [2] and in assay [4] was “binds” throughout. Besides, the “EC50 (read off the curve)” value with human GPRC5D [3] is roughly 8 nM.

B4: IgG form of the human antibody C3048 (antibody, V domains shown)
VH: QVQLVQSGAEVKKPGSSVKVSCKASGGTFSRYAISWVRQAPGQGLEWMGGIIPIFGTANYAQKFQGRVTITADQSTRTAYMDLGRLRSEDTAVYYCALEGFRDSLKRNPFDIWGQGTMVTVSS
VL: QSVVTQPPSVSAAPGQKVTISCSGGTTNIGSNYVSWYQQLPGTAPKFLMYENNKRPSGIPDRFSGSKSGTSATLAITGLQTGDEATYYCSTWDSSLNTGLFGGGTKLTVLG
notes: Human IgG1; also called C3048 IgG form; full-length IgG form containing C3048
Consider B4, for which the binding result in assay [2] and in assay [4] was “binds” each time. Besides, the concentration for a half-maximal effect (EC50 (read off the curve)) with human GPRC5D [3] lay within 7 to 8 nM.

B5: humanized anti-GPRC5D antibody h7B4_H1/L2 (antibody, human IgG1, kappa)
heavy: not shown
light: DIQMTQSPSSLSLSPGERATLSCKASQNINKYLDWYQQKPGQPPRLLIYNTNNLHTGIPDRFSGSGSGTDYTLTISRLEPEDFAVYYCLQRNSWYTFGQGTKVEIKRTVAAPSVFIFPPSDEQLKSGTASVVCLLNNFYPREAKVQWKVDNALQSGNSQESVTEQDSKDSTYSLSSTLTLSKADYEKHKVYACEVTHQGLSSPVTKSFNRGEC
notes: Human IgG1 / kappa
On to B5, for which the binding result in the assay with human GPRC5D [5] is “binds”. The 50% effective concentration (EC50 (read off the curve)) in the assay with cynomolgus monkey GPRC5D is roughly 3 nM.

B6: humanized anti-GPRC5D antibody h7B4_H2/L2 (antibody, human IgG1, kappa, V domains shown)
VH: EIQLQESGPGLVKPSQTLSLTCTVSGYTITSGYDWSWIRQPPGKGLEWIGYMSYRGSTNYNPSLKSRVTISRDTSKNQFSLKLSSVTAADTAVYYCALTRTYWYNYYYVLDAWGQGTLVTVSS
VL: DIQMTQSPSSLSLSPGERATLSCKASQNINKYLDWYQQKPGQPPRLLIYNTNNLHTGIPDRFSGSGSGTDYTLTISRLEPEDFAVYYCLQRNSWYTFGQGTKVEIKR
notes: Human IgG1 / kappa
Take B6: in the assay with human GPRC5D [5], the binding result is on record as “binds”. In addition, the “EC50 (read off the curve)” value in the assay with cynomolgus monkey GPRC5D is roughly 2 nM.

B7: humanized anti-GPRC5D antibody h7B4_H5/L1 (antibody, human IgG1, kappa, V domains shown)
VH: EIQLQESGPGLVKPSQTLSLTCTVSGYTITSGYDWSWIRKPPGNKMEWIAYMSYRGSTNYNPSLKSRVTISRDTSKNQFSLKLSSVTAADTAVYYCALTRTYWYNYYYVLDAWGQGTLVTVSS
VL: EIVLTQSPGTLSLSPGERATLSCKASQNINKYLDWYQQKPGQPPRLLIYNTNNLHTGIPDRFSGSGSGTDYTLTISRLEPEDFAVYYCLQRNSWYTFGQGTKVEIKR
notes: Human IgG1 / kappa
For B7, the binding result in the assay with human GPRC5D [5] is given as “binds”. Moreover, the “EC50 (read off the curve)” value with cynomolgus monkey GPRC5D was roughly 2 nM.

B8: humanized anti-GPRC5D antibody h7B4_H3/L1 (antibody, human IgG1, kappa)
heavy: not shown
light: EIVLTQSPGTLSLSPGERATLSCKASQNINKYLDWYQQKPGQPPRLLIYNTNNLHTGIPDRFSGSGSGTDYTLTISRLEPEDFAVYYCLQRNSWYTFGQGTKVEIKRTVAAPSVFIFPPSDEQLKSGTASVVCLLNNFYPREAKVQWKVDNALQSGNSQESVTEQDSKDSTYSLSSTLTLSKADYEKHKVYACEVTHQGLSSPVTKSFNRGEC
notes: Human IgG1 / kappa
On to B8, for which, in the assay with human GPRC5D [5], the binding result is listed as “binds”. Besides, the half-maximal effective concentration (EC50 (read off the curve)) with cynomolgus monkey GPRC5D was roughly 2 nM.

B9: human chimeric 7B4 (antibody, human IgG1, V domains shown)
VH: EIHLQESGPGLVKPSQSLSLTCSVTGYTITSGYDWSWIRKFPGNKMEWMAYMSYRGSTNYNPSLKSRISITRDTSKNQFFLQLNSVTTEDTATYYCALTRTYWYNYYYVLDAWGQGASVTVSS
VL: DIQMTQSPSFLSASVGERVTLSCKASQNINKYLDWYQQKLGEPPKLLIYNTNNLHTGIPSRFSGSGSGTDYTLTISGLQPEDVATYFCLQRNSWYTFGAGTKLELKR
notes: Human IgG1 / kappa constant regions
Consider B9, for which the binding result with mouse GPRC5D is “no binding”.
